The record followed here is the supplement of paper PMC10126150.

The data set deals with ATP. Briefly: switch fluorescence ratio, 500 uM ATP over buffer (Cy3 cluster intensity, sum of 5 cycles each) (fold (ratio)); higher = stronger signal-on switching upon ATP binding; sequences stand for … in TCGTCGGCAGCGTCAGATGTGTATAAGAGACAGTTTTTTTTTTTTTTTTTTTTTTTTT…TC. The conditions noted are these: aptamer strand: ATP DNA aptamer (quencher-CACCTGGGGGAGTATTGCGGAGGAAGG + anchor), 100 nM annealed; ATP concentration: 500 uM. The essentials:
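Clusters with intensities outside 100-1000 RFU were excluded. The remaining Cy3-labelled switching-strand clusters on a modified Illumina MiSeq flow-cell had been annealed to 100 nM quencher-labelled ATP aptamer and imaged in selection buffer, then after 15 min with 500 uM ATP at 22 °C, for five cycles separated by NaOH stripping and re-annealing. The fluorescence ratio, averaged per switch-domain sequence, is each cluster's summed target-cycle Cy3 intensity over its summed buffer-cycle Cy3 intensity.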

± gives the standard deviation of the averaged measurements.
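Further: ATP exposure 15 min at 22 °C before imaging.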

TAACGGCGCG: the switch fluorescence ratio came out at 1.028 ± 0.0024.

With TATCCCCCGG, the switch fluorescence ratio worked out at 1.95 ± 1.2.

For the sequence CATATTCGGC, the switch fluorescence ratio turned out to be 0.988 ± 0.061.

As to TGGGAAAAAA, the switch fluorescence ratio stood at 0.985 ± 0.035.

For TATGGTTAAT, the switch fluorescence ratio amounted to 0.982 ± 0.016.

In the case of TTAGGGAATG, the switch fluorescence ratio was 1 ± 0.07.

In the case of TTTAACGTCA, the switch fluorescence ratio is 1.05 ± 0.023.

Take CACAGTTACC: the switch fluorescence ratio came to 1.242 ± 0.0095.

For GGGGGTAGAC, the switch fluorescence ratio amounted to 1.01 ± 0.026.

For TGATATTGG, the switch fluorescence ratio stood at 0.971 ± 0.045.

Turning to GTTTTTGACA, the switch fluorescence ratio stood at 0.989 ± 0.015.

Consider ATAAGGGGTG, for which the switch fluorescence ratio stood at 1.02 ± 0.069.

Consider TTAAGCTAAT, for which the switch fluorescence ratio came out at 1.42 ± 0.5.

Regarding GAACCTTCGT, the switch fluorescence ratio was determined as 1.05 ± 0.096.

In the case of TCCCATTTGG, the switch fluorescence ratio was 1.03 ± 0.072.

As for TGGTTGAGTA, the switch fluorescence ratio was 0.981 ± 0.017.

Take GCTACGCGCT: the switch fluorescence ratio was 1.36 ± 0.021.

As to AAGGGAGCAC, the switch fluorescence ratio turned out to be 1.02 ± 0.023.

Regarding TGTTGGACTA, the switch fluorescence ratio was 0.9992 ± 0.0065.

For the sequence GGCTTATTGG, the switch fluorescence ratio is 0.969 ± 0.016.

Take CGAATTGGTA: the switch fluorescence ratio is 0.982 ± 0.011.

For the sequence TTCTAAGGGG, the switch fluorescence ratio stood at 1.93 ± 1.3.

In the case of TTGGGGCTGG, the switch fluorescence ratio was 1.01 ± 0.013.

As for ATGGATCTCA, the switch fluorescence ratio was determined as 1 ± 0.0063.

Regarding CAGTGAGAAC, the switch fluorescence ratio was found to be 1.01 ± 0.025.

For TGAGGCATGT, the switch fluorescence ratio was found to be 1.05 ± 0.036.

For the sequence TGGATTTAAT, the switch fluorescence ratio came to 1.01 ± 0.049.

With GGGGCCACGC, the switch fluorescence ratio came to 1.01 ± 0.034.

As for CAGTCGTCCT, the switch fluorescence ratio was 1.028 ± 0.0019.

With ATAGTATATG, the switch fluorescence ratio worked out at 0.9786 ± 0.0088.

Consider TTCAAGTGGG, for which the switch fluorescence ratio turned out to be 0.9848 ± 0.0028.

As to AGAGGGAATG, the switch fluorescence ratio came out at 0.975 ± 0.03.

In the case of CGGAGGAGGG, the switch fluorescence ratio amounted to 1.21 ± 0.3.

On to CGTAGTGTAG, for which the switch fluorescence ratio amounted to 1.02 ± 0.052.

For the sequence AAATCCCTAC, the switch fluorescence ratio came out at 1.06 ± 0.028.

For GGAAAGTCAG, the switch fluorescence ratio was found to be 0.992 ± 0.027.

With GTTTGTAGTG, the switch fluorescence ratio amounted to 1.01 ± 0.026.

With GCCTGTGGGG, the switch fluorescence ratio was determined as 0.977 ± 0.019.

For the sequence GGGAAAGCGT, the switch fluorescence ratio turned out to be 1.03 ± 0.035.

TTTGAGGGGC: the switch fluorescence ratio came to 0.995 ± 0.024.

Take CGAAGTTATG: the switch fluorescence ratio was 1.06 ± 0.03.

GGGGCACGGC: the switch fluorescence ratio was 1.01 ± 0.03.

Turning to GGGGAATCGC, the switch fluorescence ratio amounted to 0.97 ± 0.055.

With CGGGTGTGTC, the switch fluorescence ratio was 1.045 ± 0.0042.

GCTGCAGGGG: the switch fluorescence ratio worked out at 1.144 ± 0.0063.

On to CATGATGTTC, for which the switch fluorescence ratio amounted to 1.02 ± 0.021.

Turning to AGAATTTGTT, the switch fluorescence ratio was determined as 1 ± 0.024.

On to ACAGGGGTTT, for which the switch fluorescence ratio is 1.37 ± 0.7.

ATGAGATTGC: the switch fluorescence ratio was 0.9899 ± 0.0076.

With TATAGGATGG, the switch fluorescence ratio came to 0.98 ± 0.028.

With CACCTAGTTT, the switch fluorescence ratio was 1.01 ± 0.052.

In the case of TTTATTTTCA, the switch fluorescence ratio is 0.9924 ± 0.0046.

For CAACATTTCA, the switch fluorescence ratio was 1.01 ± 0.022.

As to ATCATAGCGG, the switch fluorescence ratio was 1 ± 0.015.

Regarding TCCGTTGCGG, the switch fluorescence ratio was 1.03 ± 0.034.

TTTAGGGACA: the switch fluorescence ratio came out at 1.15 ± 0.1.

For the sequence TTTACGGAGG, the switch fluorescence ratio came to 1.03 ± 0.021.

In the case of ACCAGTAGAC, the switch fluorescence ratio worked out at 1.038 ± 0.0074.

As for GGATGTTTGG, the switch fluorescence ratio is 0.975 ± 0.014.

GTTGCGTCGA: the switch fluorescence ratio is 0.997 ± 0.016.

Turning to AGGGGATCGC, the switch fluorescence ratio stood at 0.996 ± 0.034.

With TATGAGGGCA, the switch fluorescence ratio worked out at 1.02 ± 0.013.

Regarding GTACTATTTT, the switch fluorescence ratio turned out to be 1.036 ± 0.0037.

As to CAAACTTTGG, the switch fluorescence ratio turned out to be 1.006 ± 0.0077.

As to GTTAGGGGTT, the switch fluorescence ratio came out at 0.996 ± 0.024.

As for ACCTTGGCTC, the switch fluorescence ratio was 1.1 ± 0.06.
